Earlier results as cited in article PMC3511906.
Like-named read-outs stand apart in the source and are kept apart here.

Key:
CXCR1 (Mus musculus) [1] = target: CXCR1 (Mus musculus) (UniProt Q810W6)
CXCR1 (Mus musculus) [2] = target: CXCR1 (Mus musculus) (UniProt Q810W6); remark: listed apart in the source
CXCR2 (Mus musculus) = CXCR2 (Mus musculus) (UniProt P35343)
Sequence of CXCR2 (Mus musculus) (P35343 whole entry): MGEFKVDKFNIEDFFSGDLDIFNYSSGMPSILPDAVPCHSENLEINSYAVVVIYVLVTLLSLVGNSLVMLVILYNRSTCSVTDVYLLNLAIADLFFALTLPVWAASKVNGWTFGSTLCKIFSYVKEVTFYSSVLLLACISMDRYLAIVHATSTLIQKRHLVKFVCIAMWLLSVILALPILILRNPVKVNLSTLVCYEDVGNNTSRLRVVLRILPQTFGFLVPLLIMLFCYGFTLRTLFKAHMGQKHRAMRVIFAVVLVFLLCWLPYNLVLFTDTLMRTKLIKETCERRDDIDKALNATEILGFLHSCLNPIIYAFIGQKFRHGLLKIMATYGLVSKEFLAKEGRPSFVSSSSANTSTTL

Sequence of MIP-2 (P10889 28-100): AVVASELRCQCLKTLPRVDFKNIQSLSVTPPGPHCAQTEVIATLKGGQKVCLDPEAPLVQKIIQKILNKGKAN
Sequence of CXCR1 (Mus musculus) (Q810W6 whole entry): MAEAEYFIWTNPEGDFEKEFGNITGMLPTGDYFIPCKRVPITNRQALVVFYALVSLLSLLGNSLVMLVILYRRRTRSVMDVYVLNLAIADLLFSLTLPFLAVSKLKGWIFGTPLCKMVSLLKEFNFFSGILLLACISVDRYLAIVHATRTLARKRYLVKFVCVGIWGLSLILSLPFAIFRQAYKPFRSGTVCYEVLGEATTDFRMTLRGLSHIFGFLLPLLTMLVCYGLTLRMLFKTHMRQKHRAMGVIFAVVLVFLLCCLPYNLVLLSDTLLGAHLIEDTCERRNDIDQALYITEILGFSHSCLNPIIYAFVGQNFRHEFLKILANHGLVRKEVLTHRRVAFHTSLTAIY
Sequence of CXCL8 (P10145 28-99): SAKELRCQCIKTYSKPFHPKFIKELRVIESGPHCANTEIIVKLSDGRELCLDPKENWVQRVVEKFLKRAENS

## CXCL8 (from UniProt P10145)
CXCR1 (Mus musculus) [1]
  Kd: 10 nM

## MIP-2 (from UniProt P10889)
CXCR1 (Mus musculus) [2]
  Kd: 643 nM
CXCR2 (Mus musculus)
  Kd: 3.5 nM
